Experiment: yeast display, Sf9 membrane polyspecificity reagent, FACS + sequencing; frameworks hold sequencing errors
Method in brief: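 Sorting gates, low and high (top ~1%), were placed on anti-HA fluorescence to track expression and on streptavidin fluorescence to track reagent binding. A clone's polyreactivity label is taken from the gate it came out of. The reagent was 10% biotinylated, detergent-solubilized Sf9 membrane, applied for 1 hour at 4 °C to galactose-induced yeast display cells.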

Sequence	polyreactivity (PSR sort gate)
QVQLVESGGGLVQAGGSLRLSCAASGIIFGRNTMGWYRPAPGKERELVAGISSNGGSTYYADSVKGRFTISRDNAKNTVYLQMNRLKPEDTAVYYCAAYYNIPDRRRVGYDYWGQGTQVTVSS	high polyreactivity
QVQLVESGGGLVQAGGSLRLSCAASGSIFGLNAMGWSRPAPGKERELVAAISGGSTNYADSVKGRFTISRDNAKNTVYLQMNSLKPEDTAVYYCAARARRRYYYWGQGTQVTVSS	high polyreactivity
QVQLVESGGGLVQAGGSLRLSCAASGRIFRRNAMGWYRQAPGKERELVASITRGGRTSYADSVKGRFTISRDNAKNTVYLQMNSLKPEDTAVYYCNARSYQSARFRGGYWGQGTQVTVSS	high polyreactivity
QVQLVESGGGIVQAGGSLRLSCAASGFNFSLYAMGWYRQAPGKERELVAVIDRRGGNTYYADSVKGRFTISRDNAKNTVYLQMNSLKPEDTAVYSCAADRRFHYDYWGQGTQVTVSS	high polyreactivity
QVQLVESGGGLVQAGGSLRLSCAASGFTFYYYAMGLYRQAPGKERELVAAITYSGGSTYYADSVKGRFTISRDNAKNTVYLQMNSLKPEDTAVYYCAAEAIPRLSWWYGVDYWGQGTQVTVSS	low polyreactivity
QVQLVESGGCLVQAGGSLRLSCAASGRTIRVYAMGWYRQAPGKARELVASITRAGGTYADSVKGRFTISRDIAKNPDYLQMNSLKPEDTAVYFCNARWQRSTGGRQRYDYWGQGTQVTVSS	high polyreactivity
QVQLVESGGGLVQAGGSLRLSCAASGRIFTHNAMGWYIQAPGKERELVAAITSGGRTTYADSVKGRFTISRENAKNTVYLQMISLKPVDTAVYYCAADDLLDYDYWGQGTQVTVSS	low polyreactivity
QVQLVESGGGLVQAGGSLRLSCAASGLIFSNNAMGWYRQAPGKERELVAAITSSGSRTYYADSVKGRFTISRDNAKNTVYLEMNRLKPEDTAVYYCAAYEVPYQRRYGYWGQGTQVTVSS	high polyreactivity
QVQLVESGGGLVQAGGSLRLSCAASGLTFASYAMGWYRQAPGKERELVAVISASGGSTYYADSVKGRFTISRDNAKNPVYLQMNSLKPEDTAVYYCAARHSLYGYWGQGTLVTVSS	high polyreactivity
QVQLVESGGGLVQAGGSLRLSCAASGSIFFGNAMGLYRQAPGKERELVAAISTTGGSTYYADSVKGRFTISRDNAKNTVYLQMNSLKPEDTAVYYCNADRATWWEQWWYDYWGQGTQVTVSS	low polyreactivity
QVQLVESGGGIVQAGGSLRLSCAASGFTLYYYAMGWYRQAPGKERELVAAITSSGTSTYYADSVKGRFTISRDNAKNTVYVQMNSLKPEDTAVYYCAAVSKIYHYRAVRLDDYWGQGTQVTVSS	low polyreactivity
QVQLVESGGGLVQAGGSLRLSCAASGIIFSSYAMGWYRQAPGKERELVAAITSGGNTNYADSVKGRFTISRDNAKNTVYLQMNSLKTEDISVYYCNADTSFVWLAWHQYGFGYWGQGTQVTLSS	low polyreactivity
QVQLVESGGGLVQAGGSLRLSCAASGSTFRYNAMGWYRQAPGKERELVAAITSGGGTNYADSVKGRFTISRDNAKNTVYLQMKSLKPEDTAVYYCAAPWGLGSELLKRDYWGQGTQVTVSS	low polyreactivity
QVQLVESGGGLVQAGGSLRLSCAASGRIFTRYAMGWYRQAPGKERELVAAISRGGARTYYADSVKGRFTISRDNAKNTVYLQMNSLKPEDTAVYYCARQRVKTDRISGYDYWGQGTQVTVSS	high polyreactivity
QVQLVESGGGLVQAGGSLRLSCAASGFIFGYYAMGWYRQAPGKERELVAAISSRGGSTYYADSVKGRFTISRDNAKNTVYLQMNSLKPEDTAVYYCAVRRVSFRHKFGQYDYWGQGTQVTVSS	high polyreactivity
QVQLVESGGGLVQAGGSLRLSCAASGSIFDDYAMGWYRQAPGKERELVAAITSGGSTYYADSVKGRFTISLDNAKNTVYLQMNSLKPEDTAVYYRATRYHWSSSFAPVGAYGYWGQATQVTVSS	low polyreactivity
QVQLVESGGGLVQAVGSLRLSCAASGRIFRHNAMGWYRQAPGKEWELVAAISGGGTTYYADSVKGRFTISRDNAKNTVYLQMNSLKPEDTAVYYCAARRRGSVGVGYAYAYYYWGQGTQVTVSS	high polyreactivity
